Reference: patent US9579367B2

Biological target: tissue plasminogen activator (tPA)

time to achieve 50% lysis of a plasma clot (turbidity, OD405nm): 10 fold
B1: Xa-K (FXa chemically modified, via a histidine residue in its active site, with a C-terminal lysine tethered by a PEG4 spacer) (enzyme)
light: ANSFLEEMKKGHLERECMEETCSYEEAREVFEDSDKTNEFWNKYKDGDQCETSPCQNQGKCKDGLGEYTCTCLEGFEGKNCELFTRKLCSLDNGDCDQFCHEEQNSVVCSCARGYTLADNGKACIPTGPYPCGKQTLER
heavy: IVGGQECKDGECPWQALLINEENEGFCGGTILSEFYILTAAHCLYQAKRFKVRVGDRNTEQEEGGEAVHEVEVVIKHNRFTKETYDFDIAVLRLKTPITFRMNVAPACLPERDWAESTLMTQKTGIVSGFGRTHEKGRQSTRLKMLEVPYVDRNSCKLSSSFIITQNMFCAGYDTKQEDACQGDSGGPHVTRFKDTYFVTGIVSWGEGCARKGKYGIYTKVTAFLKWIDRSMKTRGLPKAKSHAPEVITSSPLK
modifications: active-site histidine (position 276 in Table A, UniProt P00742 numbering) covalently linked to (D)Phe-Pro-Arg-CH2- carrying a thiol-maleimide-PEG4 spacer with a C-terminally tethered lysine (Lys-mPEG4)
